The target of experiment [1] is T1, Tim-3-his (human, UniProt Q8TDQ0 22-202, limits assumed).
T1 construct: not shown: his tag
Description: SPR (BIAcore T-200), antibody captured by anti-human Fab, Tim-3-his flowed. In general terms: Surface plasmon resonance follows binding to a sensor surface in real time, without labels.

The target of experiment [2] is T2, Tim-3 (form used in the assay not stated) (human, UniProt Q8TDQ0 22-202, limits assumed). Description: SPR, Fab, Test 2.
In experiment [3] the target is T2, Tim-3 (form used in the assay not …). Nature of the experiment: SPR, Fab, Test 1.
The target is the same in experiment [4]. Nature of the experiment: SPR, Fab, mean of Test 1 and Test 2.
Experiment [5] has as its target T1, Tim-3-his. Description: BLI (ForteBio Octet), antibody captured on protein A tips, dipped in Tim-3-his solution. (In BLI a coated tip is dipped into the sample, and binding shifts an interference pattern.)
Experiment [6] deals with T2, Tim-3 (form used in the assay not …). Nature of the experiment: ELISA on Tim-3, absorbance at OD450nm against antibody concentration.
Experiment [7] deals with Tim-3-mIgG2a (human; mouse, UniProt Q8TDQ0 22-202). Nature of the experiment: ELISA on Tim-3-mIg, absorbance at OD450nm against antibody concentration. On the technique in general: An ELISA detects its analyte on a solid surface through an enzyme-linked reagent.
For experiment [8], the target named is T3, Human Fc-tagged Tim-3 IgV domain (human, UniProt Q8TDQ0 22-130, limits assumed).
T3 construct: not shown: human Fc tag
T3 sequence: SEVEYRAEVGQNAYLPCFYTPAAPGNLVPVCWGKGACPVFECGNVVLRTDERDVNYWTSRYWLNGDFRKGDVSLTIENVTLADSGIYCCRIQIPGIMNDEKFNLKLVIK
Description: SPR (BIAcore T-200), Fc-tagged Tim-3 IgV domain captured by anti-human IgG, antibody flowed.

These results are taken from patent US20240076375A1 (BEIGENE, published 2024).

Numbering of substitutions follows the chain as printed. Numbers in names are those of the source.

Usually Kd stands for the free concentration of one partner at which half of the binding sites on the other are occupied at equilibrium, for simple one-to-one binding. A low value points to higher affinity. Usually koff stands for the rate constant with which the complex falls apart. A low value points to a long-lived complex. For orientation: kon means the rate constant with which the complex forms. A higher kon goes with fast association. By EC50 (read off the curve) is commonly meant the concentration giving half of the maximal effect. Low readings indicate greater potency, high ones weaker potency.

B1: Ab1 in human IgG4 format with S228P mutation (antibody, V domains shown)
VH: QVQLVQSGAEVKKPGSSVKVSCKASGYTFTSYNMHWVRQAPGQGLEWMGDIYPGNGDTSYNQKFKGRVTITADKSTSTVYMELSSLRSEDTAVYYCARVGGAFPMDYWGQGTTVTVSS
VL: AIQLTQSPSSLSASVGDRVTITCRASESVEYYGTSLMQWYQQKPGKAPKLLIYAASNVESGVPSRFSGSGSGTDFTLTISSLQPEDFATYFCQQSRKDPSTFGGGTKVEIK
notes: Known Tim-3 antibody, generated in human IgG4 format with S228P mutation
In experiment [1], B1 showed a Kd of 0.271 nM, a koff of 0.00012 s⁻¹ and a kon of 444000 M⁻¹ s⁻¹.

B2: hu425-2-2 Fab (Fab, V domains shown)
VH: EVQLVESGGGLVQPGGSLRLSCAASGFTFSRYAMSWVRQAPGKGLEWVAAISSGGSLYYPDSVKGRFTISRDNAKNTLYLQMNSLRAEDTAVYYCARGREADGGYFDYWGQGTLVTVSS
VL: EIVMTQSPATLSVSPGERATLSCRASESVEYYGTSLMQWYQQKPGQAPRLLIYAASNVESGIPARFSGSGSGTEFTLTISSLQSEDFAVYYCQQSLKVPLTFGGGTKVEIK
notes: Fab prepared from the mAb with the Pierce Fab Preparation Kit; Only the variable domains are tied to the name. hu425s were engineered in the human IgG1 format
In experiment [2], B2 gave a Kd of 0.404 nM, a koff of 0.000795 s⁻¹ and a kon of 1.97e+06 M⁻¹ s⁻¹. In experiment [3], this molecule had a Kd of 0.434 nM, a koff of 0.00074 s⁻¹ and a kon of 1.71e+06 M⁻¹ s⁻¹. Further, binding in experiment [4] was put at a Kd of 0.419 nM.

B3: hybrid antibody 425 HC/Ab1 LC (antibody, V domains shown)
VH: B2 VH
VL: B1 VL
With B3, the binding result in experiment [5] was “no binding”.

B4: hu425-1-1 Fab (Fab, V domains shown)
VH: B2 VH with Y59F, T77S, L78C
VL: DIVLTQSPATLSVSPGERATLSCRASESVEYYGTSLMQWYQQKPGQAPRLLIYAASNVESGVPARFSGSGSGTDFTLTISSLQSEDFAVYYCQQSMKVPLTFGGGTKVEIKR
notes: Fab prepared from the mAb with the Pierce Fab Preparation Kit
B4: the Kd in experiment [2] stood at 0.346 nM; in experiment [3], 0.159 nM; in experiment [4], 0.253 nM. The koff came to 0.000435 s⁻¹ in experiment [2] and 0.000108 s⁻¹ in experiment [3]. Also, the kon was found to be 1.26e+06 M⁻¹ s⁻¹ in experiment [2] and 679000 M⁻¹ s⁻¹ in experiment [3].

B5: Hu425-2-3b in human IgG4 format with S228P mutation (antibody, V domains shown)
VH: B2 VH
VL: B2 VL with M4L
In experiment [1], B5 returned a Kd of 1.47 nM, a koff of 0.000778 s⁻¹ and a kon of 528000 M⁻¹ s⁻¹.

B6: hu425-2-3b Fab (Fab, V domains shown)
VH: B2 VH
VL: B2 VL with M4L
notes: Fab prepared from the mAb with the Pierce Fab Preparation Kit; Only the variable domains are tied to the name
Regarding B6, the Kd amounted to 0.366 nM in experiment [2], 0.356 nM in experiment [3] and 0.361 nM in experiment [4]. The koff was found to be 0.00064 s⁻¹ in experiment [2] and 0.00057 s⁻¹ in experiment [3]. Further, the results for the kon in experiment [2] and in experiment [3] were 1.75e+06 M⁻¹ s⁻¹ and 1.6e+06 M⁻¹ s⁻¹, respectively.

B7: hu425-2F-1 (antibody, human IgG1, kappa, V domains shown)
VH: B2 VH with Y59F, T77S, L78C, G103A
VL: B4 VL
notes: Single amino acid mutation from hu425-1-1; also called G103A
Take B7: the binding result in experiment [6] is given as “no binding”.

B8: hu425-2-3b (antibody, V domains shown)
VH: B2 VH
VL: B2 VL with M4L
notes: Full chains are not tied to the name
For the molecule B8, in experiment [7], the “EC50 (read off the curve)” value was approximately 0.01 µg/mL.

B9: Ab2 in human IgG4 format with S228P mutation (antibody, V domains shown)
VH: EVQLLESGGGLVQPGGSLRLSCAAASGFTFSSYDMSWVRQAPGKGLDWVSTISGGGTYTYYQDSVKGRFTISRDNSKNTLYLQMNSLRAEDTAVYYCASMDYWGQGTTVTVSS
VL: DIQMTQSPSSLSASVGDRVTITCRASQSIRRYLNWYHQKPGKAPKLLIYGASTLQSGVPSRFSGSGSGTDFTLTISSLQPEDFAVYYCQQSHSAPLTFGGGTKVEIKR
notes: as for B1
In experiment [1], B9 had a Kd of 19.4 nM, a koff of 0.0122 s⁻¹ and a kon of 627000 M⁻¹ s⁻¹.

B10: mu425 (antibody, V domains shown)
VH: EVKLVESGGGLVKPGGSLKLSCAASGFTFSRYAMSWVRQIPEKRLEWVAAISSGGSLYFPDSVKGRFTISRDNARNICYLQMNSLRSDDTAMYYCARGREADGGYFDYWGQGTTLTVSS
VL: DIVLTQSPASLAVSLGQRATISCRASESVEYYGTSLMQWYQQKPGQPPKLLIYAASNVESGVPARFSGSGSGTDFSLNIHPVEEDDIAMYFCQQSMKVPLTFGAGTKLELK
notes: Murine hybridoma mAb, purified
Turning to B10, in experiment [8], the affinity, expressed as Kd, was 0.058 nM; the koff was found to be 9.33e-05 s⁻¹; the on-rate constant (kon) was found to be 1.59e+06 M⁻¹ s⁻¹.

B11: ch425 Fab (Fab, V domains shown)
VH: B10 VH
VL: DIVLTQSPASLAVSLGQRATISCRASESVEYYGTSLMQWYQQKPGQPPKLLIYAASNVESGVPARFSGSGSGTDFSLNIHPVEEDDIAMYFCQQSMKVPLTFGAGTKLELKR
notes: as for B4
In experiment [3], B11 displayed a Kd of 0.122 nM, a koff of 0.000204 s⁻¹ and a kon of 1.67e+06 M⁻¹ s⁻¹.
